Results reported in article PMC3025062.

Biological target: cis-3-chloroacrylic acid dehalogenase (native)
Assay: crystal structure

stoichiometry N: 3
Substance: cis-3-chloroacrylic acid dehalogenase (native) (enzyme)
